Substrate in the series: C=C(C)CCO[P@@](=O)(O)OP(=O)(O)O
The series is described as follows: purified protein. Particulars: IPP 0.5-50 µM.

Setting [1] is: co-substrate GPP 60 µM, FPP formation.

B1: RcG/FPPS1 (Rosa chinensis; F88Y) (protein)
chain: MADLKSKFLNVYSVLKSELLEDPAFEFTDASRQWVERMLDYNVPGGKLNRGLSVIDSYQLLQQGRELTEDEIFQASALGWCIEWLQAYFLVLDDMMDGSHTRRGQPCWFRLPKVGLIAANDGVLLRNHIPRILKKHFRQKPYYVDLVDLFNEVEFQTASGQLIDLITTIDGEKDLSKYSLSIHRRIVQYKTAYYSFYLSVACALLMSGEELDKHIDVKNLLVDMGIYFQVQDDYLDCFGDPETIGKIGTDIEDFKCSWLVVKALELSNEEQKKILHENYGNPDPAKVAKVKALYKELDLQGVFAEYERQSYEKLISSIEAHPSKAVQEVLKSFLGKIYKRKK
For orientation: Km means the concentration of substrate that gives half-maximal velocity. In the case of B1, under setting [1], the Km was 9.08 ± 0.74 µM.

B2: RcG/FPPS1 (Rosa chinensis) (protein)
chain: MADLKSKFLNVYSVLKSELLEDPAFEFTDASRQWVERMLDYNVPGGKLNRGLSVIDSYQLLQQGRELTEDEIFQASALGWCIEWLQAFFLVLDDMMDGSHTRRGQPCWFRLPKVGLIAANDGVLLRNHIPRILKKHFRQKPYYVDLVDLFNEVEFQTASGQLIDLITTIDGEKDLSKYSLSIHRRIVQYKTAYYSFYLSVACALLMSGEELDKHIDVKNLLVDMGIYFQVQDDYLDCFGDPETIGKIGTDIEDFKCSWLVVKALELSNEEQKKILHENYGNPDPAKVAKVKALYKELDLQGVFAEYERQSYEKLISSIEAHPSKAVQEVLKSFLGKIYKRKK
B2: the Km (co-substrate DMAPP 60 µM, GPP formation) came out at 0.44 ± 0.03 µM.

B3: RcG/FPPS1 (Rosa chinensis; V123I) (protein)
chain: MADLKSKFLNVYSVLKSELLEDPAFEFTDASRQWVERMLDYNVPGGKLNRGLSVIDSYQLLQQGRELTEDEIFQASALGWCIEWLQAFFLVLDDMMDGSHTRRGQPCWFRLPKVGLIAANDGILLRNHIPRILKKHFRQKPYYVDLVDLFNEVEFQTASGQLIDLITTIDGEKDLSKYSLSIHRRIVQYKTAYYSFYLSVACALLMSGEELDKHIDVKNLLVDMGIYFQVQDDYLDCFGDPETIGKIGTDIEDFKCSWLVVKALELSNEEQKKILHENYGNPDPAKVAKVKALYKELDLQGVFAEYERQSYEKLISSIEAHPSKAVQEVLKSFLGKIYKRKK
For the protein B3, the Michaelis constant (Km) under setting [1] is on record as 14.74 ± 1.94 µM.

B4: RcG/FPPS1 (Rosa chinensis; F88Y/V123I) (protein)
chain: MADLKSKFLNVYSVLKSELLEDPAFEFTDASRQWVERMLDYNVPGGKLNRGLSVIDSYQLLQQGRELTEDEIFQASALGWCIEWLQAYFLVLDDMMDGSHTRRGQPCWFRLPKVGLIAANDGILLRNHIPRILKKHFRQKPYYVDLVDLFNEVEFQTASGQLIDLITTIDGEKDLSKYSLSIHRRIVQYKTAYYSFYLSVACALLMSGEELDKHIDVKNLLVDMGIYFQVQDDYLDCFGDPETIGKIGTDIEDFKCSWLVVKALELSNEEQKKILHENYGNPDPAKVAKVKALYKELDLQGVFAEYERQSYEKLISSIEAHPSKAVQEVLKSFLGKIYKRKK
In the case of B4, under setting [1], the Km came out at 12.78 ± 3.07 µM.

B5: RcFPPS2 (Rosa chinensis) (protein)
chain: MSNLRAKFMEVYSVLKSELINDPAFEFTDVSRQWIERMLDYNVPGGKLNRGLSVVDSFKLLKEGRELTDEEVFQSCALGWCIEWLQAYFLVLDDIMDGSHTRRGQPCWFRQPKIGMIAANDGIILRNHIPRILKNHFRVMPYYVDLLDLFNEVEFQTAHGQMIDLITTHEGEKDLSKYSLEIHRRIVQYKTAYYSFYLPVACALVMAGKNVESHADVKNILIEMGTYFQVQDDYLDCFGDPEVIGKVGTDIQDFKCSWMVVKALELSNEEQKKLLHENYGKDDQECIAKVKELYNVLDLQGVFTEYESSSYDKLTKSIEAHPSKAVQAVLKSFLAKIYKRQK
On to B5, for which the Km under setting [1] is on record as 13.1 ± 3.4 µM.
